{
  "source": "patent US20250000992A1",
  "about": "(Eli Lilly, published 2025)",
  "binders": {"B1": {"name": "Sandwich Ex. 3 (8D3-PGRN-C90.43) (Fab)", "heavy": "EVQLVESGGGLVQPGNSLTLSCVASGFTFSNYGMHWIRQAPKKGLEWIAMIYYDSSKMNYADTVKGRFTISRDNSKNTLYLEMNSLRSEDTAMYYCAVPTSHYVVDVWGQGVSVTVSSASTKGPCVFPLAPSSKSTSGGTAALGCLVKDYFPEPVTVSWNSGALTSGVHTFPAVLQSSGLYSLSSVVTVPSSSLGTQTYICNVNHKPSNTKVDKKVEPKSCDKTHTGGGGQGGGGQGGGGQTRCPDGQFCPVACCLDPGGASYSCCRPLLDKWPTTLSRHLGGPCQVDAHCSAGHSCIFTVSGTSSCCPFPEAVACGDGHHCCPRGFHCSADGRSCFQRSGNNSVGAIQCPDSQFECPDFSTCCVMVDGSWGCCPMPQASCCEDRVHCCPHGAFCDLVHTRCITPTGTHPLAKKLPAQRTNRAVALSSSVMCPDARSRCPDGSTCCELPSGKYGCCPMPNATCCSDHLHCCPQDTVCDLIQSKCLSKENATTDLLTKLPAHTVGDVKCDMEVSCPDGYTCCRLQSGAWGCCPFTQAVCCEDHIHCCPAGFTCDTQKGTCEQGPHQVPWMEKAPAHLSLPDPQALKRDVPCDNVSSCPSSDTCCQLTSGEWGCCPIPEAVCCSDHQHCCPQGYTCVAEGQCQRGSEIVAGLEKMPARRASLSHPRDIGCDQHTSCPVGQTCCPSLGGSWACCQLPHAVCCEDRQHCCPAGYTCNVKARSCEKEVVSAQPATFLARSPHVGVKDVECGEGHFCHDNQTCCRDNRQGWACCPYRQGVCCADRRHCCPAGFRCAARGTKCLRREAPRWDAPLRDPALRQLLGGGGQGGGGQGGGGQEVQLLESGGGLVQPGGSLRLSCAASGRYIDETAVAWFRQAPGKGREFVAGIGGGVDITYYADSVKGRFTISRDNSKNTLYLQMNSLRPEDTAVYYCGARPGRPLITSKVADLYPYWGQGTLVTVSSPP", "light": "DIQMTQSPASLSASLEEIVTITCQASQDIGNWLAWYQQKPGKSPQLLIYGATSLADGVPSRFSGSRSGTQFSLKISRVQVEDIGIYYCLQAYNTPWTFGGGTKLELKRTVAAPSVFIFPPSDEQLKSGTASVVCLLNNFYPREAKVQWKVDNALQSGNSQESVTEQDSKDSTYSLSSTLTLSKADYEKHKVYACEVTHQGLSSPVTKSFNRGEC", "notes": "Fab fusion with the 8D3 Fab in place of H09"}, "B2": {"name": "Sandwich Ex. 4 (H3.03-PGRN-C90.43) (Fab)", "heavy": "EVQLVESGGGLVKPGGSLRLSCVASGFTFSSYSMNWVRQAPGKGLEWVSSISRSSSYIYYADSVKGRFTISRDNAKNSLYLQMNSLRAEDTAVYYCARIHGYSNSDAFDKWGQGTLVTVSSASTKGPCVFPLAPSSKSTSGGTAALGCLVKDYFPEPVTVSWNSGALTSGVHTFPAVLQSSGLYSLSSVVTVPSSSLGTQTYICNVNHKPSNTKVDKKVEPKSCDKTHTGGGGQGGGGQGGGGQTRCPDGQFCPVACCLDPGGASYSCCRPLLDKWPTTLSRHLGGPCQVDAHCSAGHSCIFTVSGTSSCCPFPEAVACGDGHHCCPRGFHCSADGRSCFQRSGNNSVGAIQCPDSQFECPDFSTCCVMVDGSWGCCPMPQASCCEDRVHCCPHGAFCDLVHTRCITPTGTHPLAKKLPAQRTNRAVALSSSVMCPDARSRCPDGSTCCELPSGKYGCCPMPNATCCSDHLHCCPQDTVCDLIQSKCLSKENATTDLLTKLPAHTVGDVKCDMEVSCPDGYTCCRLQSGAWGCCPFTQAVCCEDHIHCCPAGFTCDTQKGTCEQGPHQVPWMEKAPAHLSLPDPQALKRDVPCDNVSSCPSSDTCCQLTSGEWGCCPIPEAVCCSDHQHCCPQGYTCVAEGQCQRGSEIVAGLEKMPARRASLSHPRDIGCDQHTSCPVGQTCCPSLGGSWACCQLPHAVCCEDRQHCCPAGYTCNVKARSCEKEVVSAQPATFLARSPHVGVKDVECGEGHFCHDNQTCCRDNRQGWACCPYRQGVCCADRRHCCPAGFRCAARGTKCLRREAPRWDAPLRDPALRQLLGGGGQGGGGQGGGGQEVQLLESGGGLVQPGGSLRLSCAASGRYIDETAVAWFRQAPGKGREFVAGIGGGVDITYYADSVKGRFTISRDNSKNTLYLQMNSLRPEDTAVYYCGARPGRPLITSKVADLYPYWGQGTLVTVSSPP", "light": "DIQMTQSPSAMSASVGDRVTITCRASQGISNYLAWFQQKPGKVPKRLIYAASSLQSGVPSRFSGSGSGTEFTLTISSLQPEDFATYYCLQHNSYPRTFGQGTKVEIKRTVAAPSVFIFPPSDEQLKSGTASVVCLLNNFYPREAKVQWKVDNALQSGNSQESVTEQDSKDSTYSLSSTLTLSKADYEKHKVYACEVTHQGLSSPVTKSFNRGEC", "notes": "Fab fusion with the H3.03 Fab in place of 8D3"}, "B3": {"name": "Sandwich Ex. 1 (H09-PGRN-C90.43) (Fab)", "heavy": "B2 heavy with R53S, I99R, K110N, C128S", "light": "B2 light with N31H, A34V, R96W", "notes": "also called H09 Fab-PGRN-C90.43"}, "B4": {"name": "Sandwich Ex. 2 (H09-PGRNΔpGF-C90.43) (Fab)", "heavy": "EVQLVESGGGLVKPGGSLRLSCVASGFTFSSYSMNWVRQAPGKGLEWVSSISSSSSYIYYADSVKGRFTISRDNAKNSLYLQMNSLRAEDTAVYYCARRHGYSNSDAFDNWGQGTLVTVSSASTKGPSVFPLAPSSKSTSGGTAALGCLVKDYFPEPVTVSWNSGALTSGVHTFPAVLQSSGLYSLSSVVTVPSSSLGTQTYICNVNHKPSNTKVDKKVEPKSCDKTGGGGQGGGGQGGGGQTPTGTHPLAKKLPAQRTNRAVALSSSVMCPDARSRCPDGSTCCELPSGKYGCCPMPNATCCSDHLHCCPQDTVCDLIQSKCLSKENATTDLLTKLPAHTVGDVKCDMEVSCPDGYTCCRLQSGAWGCCPFTQAVCCEDHIHCCPAGFTCDTQKGTCEQGPHQVPWMEKAPAHLSLPDPQALKRDVPCDNVSSCPSSDTCCQLTSGEWGCCPIPEAVCCSDHQHCCPQGYTCVAEGQCQRGSEIVAGLEKMPARRASLSHPRDIGCDQHTSCPVGQTCCPSLGGSWACCQLPHAVCCEDRQHCCPAGYTCNVKARSCEKEVVSAQPATFLARSPHVGVKDVECGEGHFCHDNQTCCRDNRQGWACCPYRQGVCCADRRHCCPAGFRCAARGTKCLRREAPRWDAPLRDPALRQLLGGGGQGGGGQGGGGQEVQLLESGGGLVQPGGSLRLSCAASGRYIDETAVAWFRQAPGKGREFVAGIGGGVDITYYADSVKGRFTISRDNSKNTLYLQMNSLRPEDTAVYYCGARPGRPLITSKVADLYPYWGQGTLVTVSSPP", "light": "B2 light with N31H, A34V, R96W", "notes": "also called H09 Fab-PGRNΔpGF-C90.43; H09-dPGF-C90.43"}},
  "key": {"[1]": {"target": "T1, Sortilin receptor on HEK293 cells (UniProt Q99523 78-831, limits assumed)", "T1 construct": "whole, on cells", "experiment": "told with the HEK293 cathepsin D assay (FIG. 5); no direct binding assay described"}, "[2]": {"target": "T1, Sortilin receptor on HEK293 cells", "experiment": "cell-based or functional assay"}, "[3]": {"target": "Human TfR on HEK293 cells (human, UniProt P02786 1-760)", "experiment": "cell-based or functional assay"}, "[4]": {"target": "T2, Human TfR1 ECD, hexa-histidine tagged (human, UniProt P02786 89-760)", "T2 construct": "extracellular domain; Made in 293 cells, purified by IMAC and SEC; amine coupled to a CM3 chip; also called hTfR1; not shown: hexa-histidine tag", "experiment": "SPR, Biacore T200, 25 C, His-tagged ECD amine coupled to CM3 chip, construct injected, 1:1 fit", "procedure": "(§1) To determine the binding kinetics and affinity of H09-PGRN and BACDE to human TfR1 (hTfR1), human TfR2 (hTfR2) and cynomolgus TfR1, binding affinities and kinetics for antibody to antigen were determined using a BIACORE® T200 instrument. The binding kinetics and affinity of antibodies H09-PGRN and BACDE to human TfR1 ECD were determined using surface plasmon resonance biosensor such as BIAcore® T200 (GE Healthcare, Piscataway, N.J.). Briefly described, BIAcore® T200 instrument is used to measure the binding kinetics for Sandwich Ex. 1 (H09-PGRN-C90.43) and Sandwich Ex. 2 (H09-PGRNΔpGF-C90.43 to hTfR1, hTfR2 and cyno Tfr1 via surface plasmon resonance (SPR) at 25° C. Samples are dissolved in 1×HBS-EP+running buffer (Teknova cat. #H802) and His tagged ECD of the hTfR1, hTfR2, and cyno TfR was amine coupled to the Cytiva CM3 Series S sensor chip.\n(§2) Binding is evaluated using multiple analytical cycles. Each cycle is performed at 25° C. at a flow rate of 50 μl/min for ligand association and dissociation. Each kinetic cycle consists of the following steps: injection of the Sandwich Ex. 1 (H09-PGRN-C90.43) and Sandwich Ex. 2 (H09-PGRNΔpGF-C90.43) over all four flow cells (starting at 125 nM and using two-fold serial dilutions for each cycle) for 240 seconds and followed by 900 seconds for dissociation phase, and regeneration using 3 M MgCl2 […] over a 30 s contact time. Association (i e., kₒₙ) and dissociation rates (i.e., Koff) for each are evaluated using standard double referencing and fit to “1:1 (Langmuir) binding” model in the BiaEvaluation software in batch mode. The affinity (KD) is calculated from the binding kinetics according to the relationship K)=Koff/Kon."}, "[5]": {"target": "T3, Cynomolgus TfR1 ECD, His tagged (cynomolgus, UniProt H9EXL1 89-760 (rhesus entry))", "T3 construct": "extracellular domain; Purchased from SYNGENE; also called cyno TfR1; cyno Tfr1; not shown: His tag", "experiment": "SPR, Biacore T200, 25 C, His-tagged ECD amine coupled to CM3 chip, construct injected, 1:1 fit", "procedure": "as §1, §2"}},
  "note": "Positions count from the first letter of the chain named.",
  "data": [
    {"binder": "B1", "values": [
      {"measurement": "binding result", "setting": "[1]", "value": "no binding"},
      {"measurement": "Mature Cathepsin D levels in cell lysate (ELISA), HEK293 cells, 100 ng/mL, 24 hours", "setting": "[2]", "value": 100}
    ]},
    {"binder": "B2", "values": [
      {"measurement": "binding result", "setting": "[1]", "value": "no binding"},
      {"measurement": "Mature Cathepsin D levels in cell lysate (ELISA), HEK293 cells, 100 ng/mL, 24 hours", "setting": "[3]", "value": 66}
    ]},
    {"binder": "B3", "values": [
      {"measurement": "Kd", "setting": "[4]", "value": 7.29, "unit": "nM"},
      {"measurement": "koff", "setting": "[4]", "value": 0.00434, "unit": "s⁻¹"},
      {"measurement": "kon", "setting": "[4]", "value": 595000, "unit": "M⁻¹ s⁻¹"},
      {"measurement": "Kd", "setting": "[5]", "value": 9.7, "unit": "nM"},
      {"measurement": "koff", "setting": "[5]", "value": 0.0047, "unit": "s⁻¹"},
      {"measurement": "kon", "setting": "[5]", "value": 485000, "unit": "M⁻¹ s⁻¹"}
    ]},
    {"binder": "B4", "values": [
      {"measurement": "Kd", "setting": "[4]", "value": 7.12, "unit": "nM"},
      {"measurement": "koff", "setting": "[4]", "value": 0.0052, "unit": "s⁻¹"},
      {"measurement": "kon", "setting": "[4]", "value": 730000, "unit": "M⁻¹ s⁻¹"},
      {"measurement": "Kd", "setting": "[5]", "value": 13, "unit": "nM"},
      {"measurement": "koff", "setting": "[5]", "value": 0.00318, "unit": "s⁻¹"},
      {"measurement": "kon", "setting": "[5]", "value": 244000, "unit": "M⁻¹ s⁻¹"}
    ]}
  ]
}
